Source: paper PMC5159498 (2016)
Substitutions are numbered along the chain they refer to. Numbers in names are those of the source.

B1: CDC42 (aa 1-178) (domain or fragment)
chain: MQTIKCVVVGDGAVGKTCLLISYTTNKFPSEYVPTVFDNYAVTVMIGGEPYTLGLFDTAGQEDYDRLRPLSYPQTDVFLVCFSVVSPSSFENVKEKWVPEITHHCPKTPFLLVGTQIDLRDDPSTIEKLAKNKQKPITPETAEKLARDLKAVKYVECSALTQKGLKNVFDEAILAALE
B2: IQGAP1 GRD1-CT (aa 863-1657) (domain or fragment)
chain: DPPMVVVRKFVHLLDQSDQDFQEELDLMKMREEVITLIRSNQQLENDLNLMDIKIGLLVKNKITLQDVVSHSKKLTKKNKEQLSDMMMINKQKGGLKALSKEKREKLEAYQHLFYLLQTNPTYLAKLIFQMPQNKSTKFMDSVIFTLYNYASNQREEYLLLRLFKTALQEEIKSKVDQIQEIVTGNPTVIKMVVSFNRGARGQNALRQILAPVVKEIMDDKSLNIKTDPVDIYKSWVNQMESQTGEASKLPYDVTPEQALAHEEVKTRLDSSIRNMRAVTDKFLSAIVSSVDKIPYGMRFIAKVLKDSLHEKFPDAGEDELLKIIGNLLYYRYMNPAIVAPDAFDIIDLSAGGQLTTDQRRNLGSIAKMLQHAASNKMFLGDNAHLSIINEYLSQSYQKFRRFFQTACDVPELQDKFNVDEYSDLVTLTKPVIYISIGEIINTHTLLLDHQDAIAPEHNDPIHELLDDLGEVPTIESLIGESSGNLNDPNKEALAKTEVSLTLTNKFDVPGDENAEMDARTILLNTKRLIVDVIRFQPGETLTEILETPATSEQEAEHQRAMQRRAIRDAKTPDKMKKSKSVKEDSNLTLQEKKEKIQTGLKKLTELGTVDPKNKYQELINDIARDIRNQRRYRQRRKAELVKLQQTYAALNSKATFYGEQVDYYKSYIKTCLDNLASKGKVSKKPREMKGKKSKKISLKYTAARLHEKGVLLEIEDLQVNQFKNVIFEISPTEEVGDFEVKAKFMGVQMETFMLHYQDLLQLQYEGVAVMKLFDRAKVNVNLLIFLLNKKFYGK
B3: IQGAP1 GRD1-RGCT wild type (aa 877-1558) (domain or fragment)
chain: DQSDQDFQEELDLMKMREEVITLIRSNQQLENDLNLMDIKIGLLVKNKITLQDVVSHSKKLTKKNKEQLSDMMMINKQKGGLKALSKEKREKLEAYQHLFYLLQTNPTYLAKLIFQMPQNKSTKFMDSVIFTLYNYASNQREEYLLLRLFKTALQEEIKSKVDQIQEIVTGNPTVIKMVVSFNRGARGQNALRQILAPVVKEIMDDKSLNIKTDPVDIYKSWVNQMESQTGEASKLPYDVTPEQALAHEEVKTRLDSSIRNMRAVTDKFLSAIVSSVDKIPYGMRFIAKVLKDSLHEKFPDAGEDELLKIIGNLLYYRYMNPAIVAPDAFDIIDLSAGGQLTTDQRRNLGSIAKMLQHAASNKMFLGDNAHLSIINEYLSQSYQKFRRFFQTACDVPELQDKFNVDEYSDLVTLTKPVIYISIGEIINTHTLLLDHQDAIAPEHNDPIHELLDDLGEVPTIESLIGESSGNLNDPNKEALAKTEVSLTLTNKFDVPGDENAEMDARTILLNTKRLIVDVIRFQPGETLTEILETPATSEQEAEHQRAMQRRAIRDAKTPDKMKKSKSVKEDSNLTLQEKKEKIQTGLKKLTELGTVDPKNKYQELINDIARDIRNQRRYRQRRKAELVKLQQTYAALNSKATFYGEQVDYYKSYIKTCLDNLASKGKVSKKPREMKGKKSKK
B4: IQGAP1 GRD1-RGCT S1443E (aa 877-1558) (domain or fragment)
chain: B3 chain with S567E
B5: IQGAP1 GRD1-RGCT S1441E (aa 877-1558) (domain or fragment)
chain: B3 chain with S565E

Assays:
[1] = target: B5; test: mGppNHp-bound CDC42
[2] = target: B4; test: mGppNHp-bound CDC42
CDC42 Q61L = CDC42 Q61L (human, UniProt P60953 1-178, Q61L); test: tGppNHp-bound CDC42 Q61L
RAC1 (aa 1-179) = RAC1 (aa 1-179) (human, UniProt P63000 1-179); test: mGppNHp-bound RAC1
CDC42 (aa 1-178) = target: B1; test: mGppNHp-bound CDC42
Chain of CDC42 (aa 1-178) (P60953 1-178): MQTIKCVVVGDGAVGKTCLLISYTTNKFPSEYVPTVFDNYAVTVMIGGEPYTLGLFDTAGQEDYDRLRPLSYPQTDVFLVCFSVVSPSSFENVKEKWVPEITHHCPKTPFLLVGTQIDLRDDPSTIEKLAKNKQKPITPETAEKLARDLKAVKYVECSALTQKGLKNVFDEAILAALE

Chain of CDC42 Q61L (P60953 1-178 Q61L): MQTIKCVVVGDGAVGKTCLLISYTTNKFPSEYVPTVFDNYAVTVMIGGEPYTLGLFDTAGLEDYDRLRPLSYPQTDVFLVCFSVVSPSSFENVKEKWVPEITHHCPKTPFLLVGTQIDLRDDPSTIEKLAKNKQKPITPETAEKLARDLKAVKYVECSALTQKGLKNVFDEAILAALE

Binder	koff [1] [s⁻¹]	koff [2] [s⁻¹]	koff (CDC42 Q61L) [s⁻¹]	koff (RAC1 (aa 1-179)) [s⁻¹]	koff (CDC42 (aa 1-178)) [s⁻¹]
B1	1.83	2.32	–	–	–
B2	–	–	0.073	0.66	0.39
B3	–	–	–	2.78	2.23
B4	–	–	–	2.82	–
B5	–	–	–	2.71	–
